Source: article PMC3285596 (PLoS Pathogens, 2012)

Target: T1, STAT1_(1–683), truncated, unphosphorylated human STAT1 (human, UniProt P42224 1-683)
T1 construct: also called unphosphorylated STAT1_(1–683); not shown: HA, C-terminal, kept
T1 sequence (looked up): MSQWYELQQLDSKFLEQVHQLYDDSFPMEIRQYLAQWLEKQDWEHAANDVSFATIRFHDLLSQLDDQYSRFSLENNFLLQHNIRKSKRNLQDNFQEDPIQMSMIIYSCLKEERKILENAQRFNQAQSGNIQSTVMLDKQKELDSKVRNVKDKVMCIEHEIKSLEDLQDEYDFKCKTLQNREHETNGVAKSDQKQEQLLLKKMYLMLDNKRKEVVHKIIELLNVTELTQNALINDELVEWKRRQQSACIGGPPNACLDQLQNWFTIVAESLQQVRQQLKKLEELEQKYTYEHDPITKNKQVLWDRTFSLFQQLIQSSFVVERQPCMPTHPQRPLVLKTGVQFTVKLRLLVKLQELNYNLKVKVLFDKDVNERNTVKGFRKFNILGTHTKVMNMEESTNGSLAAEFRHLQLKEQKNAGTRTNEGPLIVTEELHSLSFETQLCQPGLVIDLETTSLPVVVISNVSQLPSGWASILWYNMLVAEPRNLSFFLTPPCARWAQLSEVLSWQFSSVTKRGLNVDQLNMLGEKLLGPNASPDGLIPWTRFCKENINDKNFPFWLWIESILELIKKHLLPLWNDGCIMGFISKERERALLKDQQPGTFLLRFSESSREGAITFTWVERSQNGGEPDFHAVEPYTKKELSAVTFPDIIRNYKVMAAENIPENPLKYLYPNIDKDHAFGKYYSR
Experiment: ELISA
Settings: both partners purified

B1: Ebola virus (Zaire) VP24 residues 1-233 (EBOV_(1–233)) (domain or fragment)
chain: MAKATGRYNLISPKKDLEKGVVLSDLCNFLVSQTIQGWKVYWAGIEFDVTHKGMALLHRLKTNDFAPAWSMTRNLFPHLFQNPNSTIESPLWALRVILAAGIQDQLIDQSLIEPLAGALGLISDWLLTTNTNHFNMRTQRVKEQLSLKMLSLIRSNILKFINKLDALHVVNYNGLLSSIEIGTQNHTIIITRTNMGFLVELQEPDKSAMNRMKPGPAKFSLLHESTLKAFTQG
  binding result: binds
